Laboratory results from patent publication US20080089862A1 (published 2008).

What was measured:
Assay in all cases: ELISA
[1] = target: peptide aptamer RB13 (MBP with C-terminal peptide […]) (Escherichia coli (strain K12), UniProt P0AEX9 29-392 = MBP)
[2] = target: peptide aptamer NNS8/N21 (MBP with C-terminal peptide […]) (Escherichia coli (strain K12), UniProt P0AEX9 29-392 = MBP)
[3] = target: peptide aptamer NNS8/N7 (MBP with C-terminal peptide […]) (Escherichia coli (strain K12), UniProt P0AEX9 29-392 = MBP)
[4] = target: peptide aptamer RB18 (MBP with C-terminal peptide […]) (Escherichia coli (strain K12), UniProt P0AEX9 29-392 = MBP)
[5] = target: peptide aptamer NNS8/N23 (MBP with C-terminal peptide […]) (Escherichia coli (strain K12), UniProt P0AEX9 29-392 = MBP)
[6] = target: peptide aptamer RB17 (MBP with C-terminal peptide […]) (Escherichia coli (strain K12), UniProt P0AEX9 29-392 = MBP)
[7] = target: peptide aptamer NNS8/N22 (MBP with C-terminal peptide […]) (Escherichia coli (strain K12), UniProt P0AEX9 29-392 = MBP)
[8] = target: peptide aptamer RB15 (MBP with C-terminal peptide […]) (Escherichia coli (strain K12), UniProt P0AEX9 29-392 = MBP)
[9] = target: peptide aptamer NNS8/N8 (MBP with C-terminal peptide […]) (Escherichia coli (strain K12), UniProt P0AEX9 29-392 = MBP)
[10] = target: peptide aptamer NNS8/N10 (MBP with C-terminal peptide […]) (Escherichia coli (strain K12), UniProt P0AEX9 29-392 = MBP)
[11] = target: peptide aptamer RB16 (MBP with C-terminal peptide […]) (Escherichia coli (strain K12), UniProt P0AEX9 29-392 = MBP)
[12] = target: peptide aptamer NNS8/N5 (MBP with C-terminal peptide […]) (Escherichia coli (strain K12), UniProt P0AEX9 29-392 = MBP)

Measured: binding result

B1: single-chain NS3 protease (scNS3) (enzyme)
chain: GSVVIVGRIILSGRAPITAYSQQTRGLLGCIITSLTGRDKNQVEGEVQVVSTATQSFLATCVNGVCWTVYHGAGSKTLAAPKGPITQMYTNVDQDLVGWPKPPGARSLTPCTCGSSDLYLVTRHADVIPVRRRGDSRGSLLSPRPVSYLKGSSGGPLLCPFGHAVGIFRAAVCTRGVAKAVDFVPVESMETTMRS
notes: domain: NS4A cofactor peptide;domain: NS3 protease domain
no binding: all assays above
